Results taken from paper PMC314469, “Protein Interaction Networks by Proteome Peptide Scanning” (PLoS Biology, 2004).

Key:
[1] = target: endophilin SH3 (SH3G2_HUMAN), Q99962; test: SPOT array
[2] = target: T1, amphyphisin SH3 (AMPH_HUMAN), P49418; test: SPOT array
T1 chain: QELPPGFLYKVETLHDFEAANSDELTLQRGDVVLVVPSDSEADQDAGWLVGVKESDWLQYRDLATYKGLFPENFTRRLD

Row | Binder | normalised SPOT signal, Boehringer light units (BLU); mean over the file's lines of this peptide [1] | normalised SPOT signal, Boehringer light units (BLU); mean over the file's lines of this peptide [2]
1 | SRKNLKRPIAHLPS [Q13112 270-283] | 33.5 | 60.1
2 | SQQPPSRPPHLPVE [Q9UPQ2 54-68] | 775 | 45.1
3 | SREGPARPYRLKPG [Q9ULL4 1157-1170] | 1200 | 1270
4 | SSGRPGRPPGPAAA [Q99491 157-171] | 1800 | 72.6
5 | SSSGPKRPQDKVAV [P21399 369-382] | 50.4 | 50.5
6 | SQALPPRPPPPAPV [Q13330 692-706] | 2540 | 44.7
7 | SPSVPKRPKLPAPT [P18887 266-279] | 22000 | 1780
8 | SQGPPPRPGKPEGS [Q04118 215-228] | 132 | 103
9 | SSGILKRPQTLAIP [Q9Y2W3 232-245] | 10.4 | 71.5
10 | SSEEPRRPLRSDMV [Q9H6D1 6-19] | 110 | 1890
11 | SPRLPRRPTVESHH [O94883 131-144] | 4830 | 1290
12 | SRGPPRRPPRSVKL [Q96DR3 69-83] | 10200 | 20600
13 | SQPGPAKPPAQPSG [Q9Y6V0 287-301] | 130 | 78.5
14 | SPQAPRRPLPQVAT [Q13421 406-419] | 437 | 587
15 | SRLTLLRPEKDGEA [Q9H7S7 483-496] | 185 | 214
16 | SPVLPARPPPPPLP [O75412 1038-1052] | 1520 | 713
17 | SSGSPDRPGRRGRR [Q9BXQ6 174-187] | 150 | 3220
18 | SSHSPYRPPTNYRN [Q8TEB6 103-117] | 681 | 51.9
19 | SPVLPARPPPPPLS [O00508 1114-1128] | 4080 | 399
20 | SQGPLQRPSRLVFT [Q9UK00 141-154] | 69.8 | 1370
21 | SQGPPPRPGKPEGP [Q9UCT9 1-14] | 3230 | 106

Row | Binder | normalised SPOT signal, Boehringer light units (BLU); mean over the file's lines of this peptide [1] | normalised SPOT signal, Boehringer light units (BLU); mean over the file's lines of this peptide [2]
22 | SQEILRRPIVASEL [Q9UHW3 40-53] | 53.9 | 21.1
23 | SRSPPKKPPKRTSS [O60585 365-379] | 2210 | 236
24 | SQSFIIRPQKEGER [Q05397 355-368] | 87.4 | 118
25 | SQQNFHRPVKVRKK [Q9UI45 537-550] | 99.7 | 52.5
26 | SRNIFKRPLGSRIE [P12111 1320-1333] | 0.9 | 30.4
27 | SRLHFGRPRRADYL [Q13629 53-66] | 202 | 842
28 | SSTFLQRPIRKPSK [Q9UI27 293-306] | 341 | 4730
29 | SQIPPQRPQRDQRV [Q13283 290-303] | 15300 | 14100
30 | SQGPPPRPGKPEGQ [Q04118 68-81] | 103 | 120
31 | SPTVPIKPPSIPNG [Q13557 471-485] | 112 | 66.5
32 | SQAFIYRPIRQRVY [Q9NU43 22-35] | 102 | 621
33 | SPPSPDRPPHSQTS [Q03164 2117-2131] | 69.3 | 56.4
34 | SPPELKRPRLDENK [Q13112 538-551] | 77.2 | 51
35 | SPVHLRRPQSPGAS [Q9Y556 324-337] | 56.3 | 31.7
36 | SPPVPPRPPSSGPP [Q9UKN7 661-675] | 1880 | 1270
37 | SQNEPKRPMSGEYG [Q9Y6X4 283-296] | 21.5 | 17
38 | SSGPPPKPPVSSGS [Q9NR59 803-817] | 122 | 81.4
39 | SQRRPRRPPTVFRL [Q96Q00 325-339] | 10900 | 1550
40 | SSDWLRRPLGEDNQ [Q9Y6S1 96-109] | 37.4 | 43.6
41 | SPRALWRPPRRRTQ [O94807 430-443] | 1210 | 1010
42 | SPQEPKRPSQLPSP [O14686 4038-4051] | 33 | 52.9
